The values below come from US20260263595A1 (BETH ISRAEL DEACONESS MEDICAL CENTER, published 2026).

This assay addresses T1, human CD40 on human B cells (CD20+ cells of human PBMCs) (human, UniProt P25942 21-277).
T1 construct: whole, on cells; also called native CD40 on human blood B cells; human CD20+ B cells
The assay is described as follows: flow cytometry on human PBMCs, CD20+ gate (FIG. 2A). Here is the method:
The CD40 antibody 2C10 was characterized with respect to its ability to affect B cell activation both using rhesus monkey and human peripheral blood mononuclear cells (PBMCs). CD20 expression was chosen as being an indicator of B cells, and expression of CD23, CD80, and CD86 is associated with B cell activation. 2C10 was first assessed for its ability to bind to […]. Rhesus or human PBMCs were incubated with fluorochrome-conjugated 2C10 and an anti-CD20 antibody. Flow cytometric analysis was used to confirm the binding of 2C10 to human and rhesus CD20+ B cells (FIG. 2A). In another set of experiments, PBMCs from either rhesus monkey or humans were cultured either in the presence or absence of CD154⁺ Jurkat D1.1 cells, an immortalized T lymphocyte cell line. Activation of B cells was determined by measuring expression of three markers (CD23, CD80, and CD86) in CD20⁺ cells present in the PBMCs.
In general terms: A flow cytometer gives signals particle by particle.

T1 sequence (P25942 21-277): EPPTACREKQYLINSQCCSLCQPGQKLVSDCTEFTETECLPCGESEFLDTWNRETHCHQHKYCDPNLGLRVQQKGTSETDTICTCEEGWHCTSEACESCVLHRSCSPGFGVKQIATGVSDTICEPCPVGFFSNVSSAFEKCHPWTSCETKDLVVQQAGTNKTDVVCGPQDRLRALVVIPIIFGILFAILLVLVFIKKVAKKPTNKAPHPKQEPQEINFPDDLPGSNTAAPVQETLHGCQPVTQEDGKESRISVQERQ

B1: anti-CD40 antibody 2C10 (antibody, mouse IgG1, V domains shown)
VH: QVQLQQSGAELAKPGASVKMSCKASGYTFTNYWMHWVKQRPGQGLEWIGYINPSNDYTKYNQKFKDKATLTADKSSNTAYMQLGSLTSEDSAVYYCARQGFPYWGQGTLVTVS
VL: QIVLTQSPAIMSASPGEKVTMTCSASSSVSYMHWYHQRSGTSPKRWIYDTSKLASGVPARFSGSGSGTSYSLTISSMEAEDAATYYCHQLSSDPFTFGSGTKLEIK
notes: also called 2C10 antibody; APC-conjugated 2C10
B1: the binding result is reported as “binds”.
